Assay results reported in the supplement of paper PMC5998384.

Experiments:
HeLa Kyoto [1] = experiment: solubility in G1/S (NP-40 vs SDS abundance) (log2 ratio); higher = more soluble; conditions: cell cycle stage: G1/S
HeLa Kyoto [2] = experiment: melting temperature (median over replicates), in situ; higher = more thermally stable
HeLa Kyoto [3] = experiment: solubility change mitosis vs G1/S (difference of NP-40 vs SDS log2 ratios) (log2 ratio difference); higher = more soluble in mitosis
HeLa Kyoto [4] = experiment: thermal stability score vs G1/S (z-score of summed log2 fold changes over temperatures); higher = more thermally stable than in G1/S
[5] = cell cycle stage: early G1 (4.5 h after nocodazole release)
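Wherever melting temperature (median over replicates), in situ is given: HeLa Kyoto cells synchronized by double thymidine or nocodazole block, proteins quantified by TMT10plex mass spectrometry, three independent biological replicates.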
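Wherever solubility change mitosis vs G1/S (difference of NP-40 vs SDS log2 ratios) is given: synchronized HeLa Kyoto cells (double thymidine block for G1/S, nocodazole release for mitosis), protein amounts in NP-40 versus SDS lysates quantified by mass spectrometry, three biological replicates.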
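Wherever solubility in G1/S (NP-40 vs SDS abundance) is given: HeLa Kyoto cells arrested at G1/S by double thymidine block, proteins quantified by TMT10plex mass spectrometry in mild NP-40 versus SDS extracts, three biological replicates.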
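Wherever thermal stability score vs G1/S (z-score of summed log2 fold changes over temperatures) is given: synchronized HeLa Kyoto cells, proteins quantified by TMT10plex mass spectrometry, three biological replicates, mitosis taken 0.5 h after nocodazole release, G1/S directly after double thymidine block.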

Row | Sequence | solubility in G1/S (log2) (HeLa Kyoto [1]) | melting temperature (HeLa Kyoto [2]; cell cycle stage: G1/S) | melting temperature (HeLa Kyoto [2]; cell cycle stage: mitosis) | solubility change mitosis (log2) (HeLa Kyoto [3]) | thermal stability score (HeLa Kyoto [4]; [5]) | thermal stability score (HeLa Kyoto [4]; cell cycle stage: mitosis)
1 | MGQREMWRLMSRFNAFKRTNTILHHLRMSKHTDAAEEVLLEKKGCTGVITLNRPKFLNALTLNMIRQIYPQLKKWEQDPETFLIIIKGAGGKAFCAGGDIRVISEAEKAKQKIAPVFFREEYMLNNAVGSCQKPYVALIHGITMGGGVGLSVHGQFRVATEKCLFAMPETAIGLFPDVGGGYFLPRLQGKLGYFLALTGFRLKGRDVYRAGIATHFVDSEKLAMLEEDLLALKSPSKENIASVLENYHTESKIDRDKSFILEEHMDKINSCFSANTVEEIIENLQQDGSSFALEQLKVINKMSPTSLKITLRQLMEGSSKTLQEVLTMEYRLSQACMRGHDFHEGVRAVLIDKDQSPKWKPADLKEVTEEDLNNHFKSLGSSDLKF [HIBCH] | 0.343 | 49.7 °C | 50.2 °C | -0.019 | 0.653 | 0.967
2 | MGQSGRSRHQKRARAQAQLRNLEAYAANPHSFVFTRGCTGRNIRQLSLDVRRVMEPLTASRLQVRKKNSLKDCVAVAGPLGVTHFLILSKTETNVYFKLMRLPGGPTLTFQVKKYSLVRDVVSSLRRHRMHEQQFAHPPLLVLNSFGPHGMHVKLMATMFQNLFPSINVHKVNLNTIKRCLLIDYNPDSQELDFRHYSIKVVPVGASRGMKKLLQEKFPNMSRLQDISELLATGAGLSESEAEPDGDHNITELPQAVAGRGNMRAQQSAVRLTEIGPRMTLQLIKVQEGVGEGKVMFHSFVSKTEEELQAILEAKEKKLRLKAQRQAQQAQNVQRKQEQREAHRKKSLEGMKKARVGGSDEEASGIPSRTASLELGEDDDEQEDDDIEYFCQAVGEAPSEDLFPEAKQKRLAKSPGRKRKRWEMDRGRGRLCDQKFPKTKDKSQGAQARRGPRGASRDGGRGRGRGRPGKRVA [PPAN] | -1.97 | 52.2 °C | 52 °C | 1.07 | -0.721 | -2.53
3 | MGRESRHYRKRSASRGRSGSRSRSRSPSDKRSKRGDDRRSRSRDRDRRRERSRSRDKRRSRSRDRKRLRRSRSRERDRSRERRRSRSRDRRRSRSRSRGRRSRSSSPGNKSKKTENRSRSKEKTDGGESSKEKKKDKDDKEDEKEKDAGNFDQNKLEEEMRKRKERVEKWREEQRKKAMENIGELKKEIEEMKQGKKWSLEDDDDDEDDPAEAEKEGNEMEGEELDPLDAYMEEVKEEVKKFNMRSVKGGGGNEKKSGPTVTKVVTVVTTKKAVVDSDKKKGELMENDQDAMEYSSEEEEVDLQTALTGYQTKQRKLLEPVDHGKIEYEPFRKNFYVEVPELAKMSQEEVNVFRLEMEGITVKGKGCPKPIKSWVQCGISMKILNSLKKHGYEKPTPIQTQAIPAIMSGRDLIGIAKTGSGKTIAFLLPMFRHIMDQRSLEEGEGPIAVIMTPTRELALQITKECKKFSKTLGLRVVCVYGGTGISEQIAELKRGAEIIVCTPGRMIDMLAANSGRVTNLRRVTYVVLDEADRMFDMGFEPQVMRIVDNVRPDRQTVMFSATFPRAMEALARRILSKPIEVQVGGRSVVCSDVEQQVIVIEEEKKFLKLLELLGHYQESGSVIIFVDKQEHADGLLKDLMRASYPCMSLHGGIDQYDRDSIINDFKNGTCKLLVATSVAARGLDVKHLILVVNYSCPNHYEDYVHRAGRTGRAGNKGYAYTFITEDQARYAGDIIKALELSGTAVPPDLEKLWSDFKDQQKAEGKIIKKSSGFSGKGFKFDETEQALANERKKLQKAALGLQDSDDEDAAVDIDEQIESMFNSKKRVKDMAAPGTSSVPAPTAGNAEKLEIAKRLALRINAQKNLGIESQDVMQQATNAILRGGTILAPTVSAKTIAEQLAEKINAKLNYVPLEKQEEERQDGGQNESFKRYEEELEINDFPQTARWKVTSKEALQRISEYSEAAITIRGTYFPPGKEPKEGERKIYLAIESANELAVQKAKAEITRLIKEELIRLQNSYQPTNKGRYKVL [DDX46] | -0.607 | 47.7 °C | 49.2 °C | -0.00451 | 3.63 | 9.43
4 | MGRIFLDHIGGTRLFSCANCDTILTNRSELISTRFTGATGRAFLFNKVVNLQYSEVQDRVMLTGRHMVRDVSCKNCNSKLGWIYEFATEDSQRYKEGRVILERALVRESEGFEEHVPSDNS [YPEL5] | 0.00475 | 50.7 °C | 52.5 °C | -0.00616 | 0.121 | -0.0508
5 | MGRSGKLPSGVSAKLKRWKKGHSSDSNPAICRHRQAARSRFFSRPSGRSDLTVDAVKLHNELQSGSLRLGKSEAPETPMEEEAELVLTEKSSGTFLSGLSDCTNVTFSKVQRFWESNSAAHKEICAVLAAVTEVIRSQGGKETETEYFAALMTTMEAVESPESLAAVAYLLNLVLKRVPSPVLIKKFSDTSKAFMDIMSAQASSGSTSVLRWVLSCLATLLRKQDLEAWGYPVTLQVYHGLLSFTVHPKPKIRKAAQHGVCSVLKGSEFMFEKAPAHHPAAISTAKFCIQEIEKSGGSKEATTTLHMLTLLKDLLPCFPEGLVKSCSETLLRVMTLSHVLVTACAMQAFHSLFHARPGLSTLSAELNAQIITALYDYVPSENDLQPLLAWLKVMEKAHINLVRLQWDLGLGHLPRFFGTAVTCLLSPHSQVLTAATQSLKEILKECVAPHMADIGSVTSSASGPAQSVAKMFRAVEEGLTYKFHAAWSSVLQLLCVFFEACGRQAHPVMRKCLQSLCDLRLSPHFPHTAALDQAVGAAVTSMGPEVVLQAVPLEIDGSEETLDFPRSWLLPVIRDHVQETRLGFFTTYFLPLANTLKSKAMDLAQAGSTVESKIYDTLQWQMWTLLPGFCTRPTDVAISFKGLARTLGMAISERPDLRVTVCQALRTLITKGCQAEADRAEVSRFAKNFLPILFNLYGQPVAAGDTPAPRRAVLETIRTYLTITDTQLVNSLLEKASEKVLDPASSDFTRLSVLDLVVALAPCADEAAISKLYSTIRPYLESKAHGVQKKAYRVLEEVCASPQGPGALFVQSHLEDLKKTLLDSLRSTSSPAKRPRLKCLLHIVRKLSAEHKEFITALIPEVILCTKEVSVGARKNAFALLVEMGHAFLRFGSNQEEALQCYLVLIYPGLVGAVTMVSCSILALTHLLFEFKGLMGTSTVEQLLENVCLLLASRTRDVVKSALGFIKVAVTVMDVAHLAKHVQLVMEAIGKLSDDMRRHFRMKLRNLFTKFIRKFGFELVKRLLPEEYHRVLVNIRKAEARAKRHRALSQAAVEEEEEEEEEEEPAQGKGDSIEEILADSEDEEDNEEEERSRGKEQRKLARQRSRAWLKEGGGDEPLNFLDPKVAQRVLATQPGPGRGRKKDHGFKVSADGRLIIREEADGNKMEEEEGAKGEDEEMADPMEDVIIRNKKHQKLKHQKEAEEEELEIPPQYQAGGSGIHRPVAKKAMPGAEYKAKKAKGDVKKKGRPDPYAYIPLNRSKLNRRKKMKLQGQFKGLVKAARRGSQVGHKNRRKDRRP [RRP12] | -0.758 | 46.3 °C | 49 °C | 0.248 | 3.24 | 7.79
6 | MGRVQLFEISLSHGRVVYSPGEPLAGTVRVRLGAPLPFRAIRVTCIGSCGVSNKANDTAWVVEEGYFNSSLSLADKGSLPAGEHSFPFQFLLPATAPTSFEGPFGKIVHQVRAAIHTPRFSKDHKCSLVFYILSPLNLNSIPDIEQPNVASATKKFSYKLVKTGSVVLTASTDLRGYVVGQALQLHADVENQSGKDTSPVVASLLQKVSYKAKRWIHDVRTIAEVEGAGVKAWRRAQWHEQILVPALPQSALPGCSLIHIDYYLQVSLKAPEATVTLPVFIGNIAVNHAPVSPRPGLGLPPGAPPLVVPSAPPQEEAEAEAAAGGPHFLDPVFLSTKSHSQRQPLLATLSSVPGAPEPCPQDGSPASHPLHPPLCISTGATVPYFAEGSGGPVPTTSTLILPPEYSSWGYPYEAPPSYEQSCGGVEPSLTPES [ARRDC1] | 0.131 | 53.2 °C | 52.1 °C | -0.0855 | -1.09 | -1.63
7 | MGSAGLSRLHGLFAVYKPPGLKWKHLRDTVELQLLKGLNARKPPAPKQRVRFLLGPMEGSEEKELTLTATSVPSFINHPLVCGPAFAHLKVGVGHRLDAQASGVLVLGVGHGCRLLTDMYNAHLTKDYTVRGLLGKATDDFREDGRLVEKTTYDHVTREKLDRILAVIQGSHQKALVMYSNLDLKTQEAYEMAVRGLIRPMNKSPMLITGIRCLYFAPPEFLLEVQCMHETQKELRKLVHEIGLELKTTAVCTQVRRTRDGFFTLDSALLRTQWDLTNIQDAIRAATPQVAAELEKSLSPGLDTKQLPSPGWSWDSQGPSSTLGLERGAGQ [TRUB2] | -0.103 | 50.2 °C | 50 °C | 0.16 | -0.241 | 0.385
8 | MGSLFRSETMCLAQLFLQSGTAYECLSALGEKGLVQFRDLNQNVSSFQRKFVGEVKRCEELERILVYLVQEINRADIPLPEGEASPPAPPLKQVLEMQEQLQKLEVELREVTKNKEKLRKNLLELIEYTHMLRVTKTFVKRNVEFEPTYEEFPSLESDSLLDYSCMQRLGAKLGFVSGLINQGKVEAFEKMLWRVCKGYTIVSYAELDESLEDPETGEVIKWYVFLISFWGEQIGHKVKKICDCYHCHVYPYPNTAEERREIQEGLNTRIQDLYTVLHKTEDYLRQVLCKAAESVYSRVIQVKKMKAIYHMLNMCSFDVTNKCLIAEVWCPEADLQDLRRALEEGSRESGATIPSFMNIIPTKETPPTRIRTNKFTEGFQNIVDAYGVGSYREVNPALFTIITFPFLFAVMFGDFGHGFVMFLFALLLVLNENHPRLNQSQEIMRMFFNGRYILLLMGLFSVYTGLIYNDCFSKSVNLFGSGWNVSAMYSSSHPPAEHKKMVLWNDSVVRHNSILQLDPSIPGVFRGPYPLGIDPIWNLATNRLTFLNSFKMKMSVILGIIHMTFGVILGIFNHLHFRKKFNIYLVSIPELLFMLCIFGYLIFMIFYKWLVFSAETSRVAPSILIEFINMFLFPASKTSGLYTGQEYVQRVLLVVTALSVPVLFLGKPLFLLWLHNGRSCFGVNRSGYTLIRKDSEEEVSLLGSQDIEEGNHQVEDGCREMACEEFNFGEILMTQVIHSIEYCLGCISNTASYLRLWALSLAHAQLSDVLWAMLMRVGLRVDTTYGVLLLLPVIALFAVLTIFILLIMEGLSAFLHAIRLHWVEFQNKFYVGAGTKFVPFSFSLLSSKFNNDDSVA [ATP6V0A2] | -0.303 | 55.8 °C | 56.5 °C | -0.0408 | -2.85 | -3.91
9 | MGSPEDDLIGIPFPDHSSELLSCLNEQRQLGHLCDLTIRTQGLEYRTHRAVLAACSHYFKKLFTEGGGGAVMGAGGSGTATGGAGAGVCELDFVGPEALGALLEFAYTATLTTSSANMPAVLQAARLLEIPCVIAACMEILQGSGLEAPSPDEDDCERARQYLEAFATATASGVPNGEDSPPQVPLPPPPPPPPRPVARRSRKPRKAFLQTKGARANHLVPEVPTVPAHPLTYEEEEVAGRVGSSGGSGPGDSYSPPTGTASPPEGPQSYEPYEGEEEEEELVYPPAYGLAQGGGPPLSPEELGSDEDAIDPDLMAYLSSLHQDNLAPGLDSQDKLVRKRRSQMPQECPVCHKIIHGAGKLPRHMRTHTGEKPFACEVCGVRFTRNDKLKIHMRKHTGERPYSCPHCPARFLHSYDLKNHMHLHTGDRPYECHLCHKAFAKEDHLQRHLKGQNCLEVRTRRRRKDDAPPHYPPPSTAAASPAGLDLSNGHLDTFRLSLARFWEQSAPTGPPVSTPGPPDDDEEEGAPTTPQAEGAMESS [ZBTB7B] | -0.127 | 54.7 °C | 55 °C | 0.171 | 1.42 | 0.814
